{"source": "paper PMC9878632", "about": "(ACS Omega, 2023)", "key": {"AUC": {"biological_target": "the molecule itself", "experiment": "AUC"}, "crystal structure": {"biological_target": "the molecule itself", "experiment": "crystal structure"}}}
{"protein": "PYCR1 T171M variant (human Δ1-pyrroline-5-carboxylate reductase 1, Thr171Met) (enzyme, UniProt P32322 1-300, looked up) MSVGFIGAGQLAFALAKGFTAAGVLAAHKIMASSPDMDLATVSALRKMGVKLTPHNKETVQHSDVLFLAVKPHIIPFILDEIGADIEDRHIVVSCAAGVTISSIEKKLSAFRPAPRVIRCMTNTPVVVREGATVYATGTHAQVEDGRLMEQLLSSVGFCTEVEEDLIDAVMGLSGSGPAYAFTALDALADGGVKMGLPRRLAVRLGAQALLGAAKMLLHSEQHPGQLKDNVSSPGGATIHALHVLESGGFRSLLINAVEASCIRTRELQSMADQEQVSPAAIKKTILDKVKLDSPAGTAL", "values": [{"measurement": "stoichiometry N", "setting": "AUC", "value": 2}, {"measurement": "stoichiometry N", "setting": "crystal structure", "value": 10}]}
